In patent US20220204580A1 (AstraZeneca / MedImmune, published 2022):
Numbered stars: 1 amine (or outer) side, 2 acyl side, 3 side chain; on linkers, the order of the positions; unused ones are H or OH. Bridge positions count the residues as written; N and C are the ends. Square brackets hold non-standard residues; d marks the D form. Side chains are listed from the residue outwards. Ends that are not written are not given here. * marks the point of attachment. C18 diacid = O=C(O)CCCCCCCCCCCCCCCCC(=O)*; γGlu = O=C(O)[C@H](CCC(=O)[*:2])N[*:1]; AEEA = NCCOCCOCC(=O)O; Aib = CC(C)(N)C(=O)O

T1: human amylin receptor (calcitonin receptor co-expressed with receptor activity modifying protein, RAMP3) (human, UniProt P30988 25-474; O60896 24-148)
T1 sequence (looked up) 1: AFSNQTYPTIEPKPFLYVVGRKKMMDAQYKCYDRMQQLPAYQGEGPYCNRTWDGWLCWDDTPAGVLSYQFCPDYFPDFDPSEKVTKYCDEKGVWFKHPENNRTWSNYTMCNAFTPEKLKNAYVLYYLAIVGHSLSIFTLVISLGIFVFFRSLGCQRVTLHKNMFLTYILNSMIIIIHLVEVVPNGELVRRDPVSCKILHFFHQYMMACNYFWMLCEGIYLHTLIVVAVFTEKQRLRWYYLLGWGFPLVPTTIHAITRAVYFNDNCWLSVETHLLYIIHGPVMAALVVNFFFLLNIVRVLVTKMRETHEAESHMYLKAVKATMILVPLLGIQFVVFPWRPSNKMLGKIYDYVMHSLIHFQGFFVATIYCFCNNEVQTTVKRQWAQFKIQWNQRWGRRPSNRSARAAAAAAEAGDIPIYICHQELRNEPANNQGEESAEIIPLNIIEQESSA
T1 sequence (looked up) 2: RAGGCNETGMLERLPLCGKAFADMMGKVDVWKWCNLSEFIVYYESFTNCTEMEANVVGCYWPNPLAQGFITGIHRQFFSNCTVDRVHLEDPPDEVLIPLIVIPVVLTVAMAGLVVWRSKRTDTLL

T2: human calcitonin receptor (human, UniProt P30988 25-474)
T2 sequence (looked up): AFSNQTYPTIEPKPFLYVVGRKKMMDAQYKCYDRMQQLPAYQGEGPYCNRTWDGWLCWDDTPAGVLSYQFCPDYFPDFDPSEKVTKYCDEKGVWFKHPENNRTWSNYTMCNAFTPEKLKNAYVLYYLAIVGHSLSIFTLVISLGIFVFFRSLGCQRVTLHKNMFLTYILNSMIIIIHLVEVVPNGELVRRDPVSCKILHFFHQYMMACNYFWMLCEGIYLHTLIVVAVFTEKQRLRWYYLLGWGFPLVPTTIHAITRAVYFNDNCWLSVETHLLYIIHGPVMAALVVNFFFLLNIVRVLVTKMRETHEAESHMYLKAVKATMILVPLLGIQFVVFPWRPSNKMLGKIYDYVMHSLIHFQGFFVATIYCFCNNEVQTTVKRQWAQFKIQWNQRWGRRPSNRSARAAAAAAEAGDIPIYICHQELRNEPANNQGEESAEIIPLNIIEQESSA


Legend:
[1] = target: T1, human amylin receptor (calcitonin …); assay: cell-based or functional assay
[2] = target: T2, human calcitonin receptor; assay: cell-based or functional assay

Row | Binder | EC50 (cAMP production) [1] | Ratio (EC50 hCTR / EC50 hAMYR3) [1] | EC50 (cAMP production) [2]
1 | K([AEEA-AEEA-γGlu-C18 diacid])GGGKCNTATCATQRLANFLVHSSNNFGPILPPTNVGSNTY-NH2 (disulfide 6-11) [Peptide 7 (SEQ ID NO: 7)] | 173 pM | 12 | 2160 pM
2 | K([γGlu-C18 diacid])KCNTATCATQRLANFLSHSS[Aib]NFGPILPPTRVGSNTY-NH2 (disulfide 3-8; N-terminus assumed; SMILES CC[C@H](C)[C@H](NC(=O)[C@@H]1CCCN1C(=O)CNC(=O)[C@H](Cc1ccccc1)NC(=O)[C@H](CC(N)=O)NC(=O)C(C)(C)NC(=O)[C@H](CO)NC(=O)[C@H](CO)NC(=O)[C@H](Cc1c[nH]cn1)NC(=O)[C@H](CO)NC(=O)[C@H](CC(C)C)NC(=O)[C@H](Cc1ccccc1)NC(=O)[C@H](CC(N)=O)NC(=O)[C@H](C)NC(=O)[C@H](CC(C)C)NC(=O)[C@H](CCCNC(=N)N)NC(=O)[C@H](CCC(N)=O)NC(=O)[C@@H](NC(=O)[C@H](C)NC(=O)[C@@H]1CSSC[C@H](NC(=O)[C@H](CCCCN)NC(=O)[C@@H](N)CCCCNC(=O)CC[C@H](NC(=O)CCCCCCCCCCCCCCCCC(=O)O)C(=O)O)C(=O)N[C@@H](CC(N)=O)C(=O)N[C@@H]([C@@H](C)O)C(=O)N[C@@H](C)C(=O)N[C@@H]([C@@H](C)O)C(=O)N1)[C@@H](C)O)C(=O)N[C@@H](CC(C)C)C(=O)N1CCC[C@H]1C(=O)N1CCC[C@H]1C(=O)N[C@H](C(=O)N[C@@H](CCCNC(=N)N)C(=O)N[C@H](C(=O)NCC(=O)N[C@@H](CO)C(=O)N[C@@H](CC(N)=O)C(=O)N[C@H](C(=O)N[C@@H](Cc1ccc(O)cc1)C(N)=O)[C@@H](C)O)C(C)C)[C@@H](C)O) [Peptide 52 (SEQ ID NO: 52)] | 89 pM | 12 | 1100 pM
3 | K([γGlu-C18 diacid])KCNTATCATQRLANFLSHSS[Aib]NFGPILPPTPVGSNTY-NH2 (disulfide 3-8; N-terminus assumed; SMILES CC[C@H](C)[C@H](NC(=O)[C@@H]1CCCN1C(=O)CNC(=O)[C@H](Cc1ccccc1)NC(=O)[C@H](CC(N)=O)NC(=O)C(C)(C)NC(=O)[C@H](CO)NC(=O)[C@H](CO)NC(=O)[C@H](Cc1c[nH]cn1)NC(=O)[C@H](CO)NC(=O)[C@H](CC(C)C)NC(=O)[C@H](Cc1ccccc1)NC(=O)[C@H](CC(N)=O)NC(=O)[C@H](C)NC(=O)[C@H](CC(C)C)NC(=O)[C@H](CCCNC(=N)N)NC(=O)[C@H](CCC(N)=O)NC(=O)[C@@H](NC(=O)[C@H](C)NC(=O)[C@@H]1CSSC[C@H](NC(=O)[C@H](CCCCN)NC(=O)[C@@H](N)CCCCNC(=O)CC[C@H](NC(=O)CCCCCCCCCCCCCCCCC(=O)O)C(=O)O)C(=O)N[C@@H](CC(N)=O)C(=O)N[C@@H]([C@@H](C)O)C(=O)N[C@@H](C)C(=O)N[C@@H]([C@@H](C)O)C(=O)N1)[C@@H](C)O)C(=O)N[C@@H](CC(C)C)C(=O)N1CCC[C@H]1C(=O)N1CCC[C@H]1C(=O)N[C@H](C(=O)N1CCC[C@H]1C(=O)N[C@H](C(=O)NCC(=O)N[C@@H](CO)C(=O)N[C@@H](CC(N)=O)C(=O)N[C@H](C(=O)N[C@@H](Cc1ccc(O)cc1)C(N)=O)[C@@H](C)O)C(C)C)[C@@H](C)O) [Peptide 53 (SEQ ID NO: 53)] | 98 pM | 2 | 235 pM
4 | K([γGlu-C18 diacid])KCNTATCATQRLANFLSHSS[Aib]NFGPILPPTHVGSNTY-NH2 (disulfide 3-8; N-terminus assumed; SMILES CC[C@H](C)[C@H](NC(=O)[C@@H]1CCCN1C(=O)CNC(=O)[C@H](Cc1ccccc1)NC(=O)[C@H](CC(N)=O)NC(=O)C(C)(C)NC(=O)[C@H](CO)NC(=O)[C@H](CO)NC(=O)[C@H](Cc1c[nH]cn1)NC(=O)[C@H](CO)NC(=O)[C@H](CC(C)C)NC(=O)[C@H](Cc1ccccc1)NC(=O)[C@H](CC(N)=O)NC(=O)[C@H](C)NC(=O)[C@H](CC(C)C)NC(=O)[C@H](CCCNC(=N)N)NC(=O)[C@H](CCC(N)=O)NC(=O)[C@@H](NC(=O)[C@H](C)NC(=O)[C@@H]1CSSC[C@H](NC(=O)[C@H](CCCCN)NC(=O)[C@@H](N)CCCCNC(=O)CC[C@H](NC(=O)CCCCCCCCCCCCCCCCC(=O)O)C(=O)O)C(=O)N[C@@H](CC(N)=O)C(=O)N[C@@H]([C@@H](C)O)C(=O)N[C@@H](C)C(=O)N[C@@H]([C@@H](C)O)C(=O)N1)[C@@H](C)O)C(=O)N[C@@H](CC(C)C)C(=O)N1CCC[C@H]1C(=O)N1CCC[C@H]1C(=O)N[C@H](C(=O)N[C@@H](Cc1c[nH]cn1)C(=O)N[C@H](C(=O)NCC(=O)N[C@@H](CO)C(=O)N[C@@H](CC(N)=O)C(=O)N[C@H](C(=O)N[C@@H](Cc1ccc(O)cc1)C(N)=O)[C@@H](C)O)C(C)C)[C@@H](C)O) [Peptide 51 (SEQ ID NO: 51)] | 126 pM | 13 | 1640 pM

Further lines, results first:

Row | EC50 (cAMP production) [1] | Ratio (EC50 hCTR / EC50 hAMYR3) [1] | EC50 (cAMP production) [2] | Binder
5 | 7590 pM | 0.2 | 1510 pM | K([γGlu-C18 diacid])KCNTATCATQRLANFLSHSS[Aib]NFGPILPPTNVPSNTY-NH2 (disulfide 3-8; N-terminus assumed; SMILES CC[C@H](C)[C@H](NC(=O)[C@@H]1CCCN1C(=O)CNC(=O)[C@H](Cc1ccccc1)NC(=O)[C@H](CC(N)=O)NC(=O)C(C)(C)NC(=O)[C@H](CO)NC(=O)[C@H](CO)NC(=O)[C@H](Cc1c[nH]cn1)NC(=O)[C@H](CO)NC(=O)[C@H](CC(C)C)NC(=O)[C@H](Cc1ccccc1)NC(=O)[C@H](CC(N)=O)NC(=O)[C@H](C)NC(=O)[C@H](CC(C)C)NC(=O)[C@H](CCCNC(=N)N)NC(=O)[C@H](CCC(N)=O)NC(=O)[C@@H](NC(=O)[C@H](C)NC(=O)[C@@H]1CSSC[C@H](NC(=O)[C@H](CCCCN)NC(=O)[C@@H](N)CCCCNC(=O)CC[C@H](NC(=O)CCCCCCCCCCCCCCCCC(=O)O)C(=O)O)C(=O)N[C@@H](CC(N)=O)C(=O)N[C@@H]([C@@H](C)O)C(=O)N[C@@H](C)C(=O)N[C@@H]([C@@H](C)O)C(=O)N1)[C@@H](C)O)C(=O)N[C@@H](CC(C)C)C(=O)N1CCC[C@H]1C(=O)N1CCC[C@H]1C(=O)N[C@H](C(=O)N[C@@H](CC(N)=O)C(=O)N[C@H](C(=O)N1CCC[C@H]1C(=O)N[C@@H](CO)C(=O)N[C@@H](CC(N)=O)C(=O)N[C@H](C(=O)N[C@@H](Cc1ccc(O)cc1)C(N)=O)[C@@H](C)O)C(C)C)[C@@H](C)O) [Peptide 54 (SEQ ID NO: 54)]
6 | 678 pM | 3 | 1870 pM | K([γGlu-C18 diacid])KCNTATCATQRLANFLSHSS[Aib]NFGPILPPTNVGSPTY-NH2 (disulfide 3-8; N-terminus assumed; SMILES CC[C@H](C)[C@H](NC(=O)[C@@H]1CCCN1C(=O)CNC(=O)[C@H](Cc1ccccc1)NC(=O)[C@H](CC(N)=O)NC(=O)C(C)(C)NC(=O)[C@H](CO)NC(=O)[C@H](CO)NC(=O)[C@H](Cc1c[nH]cn1)NC(=O)[C@H](CO)NC(=O)[C@H](CC(C)C)NC(=O)[C@H](Cc1ccccc1)NC(=O)[C@H](CC(N)=O)NC(=O)[C@H](C)NC(=O)[C@H](CC(C)C)NC(=O)[C@H](CCCNC(=N)N)NC(=O)[C@H](CCC(N)=O)NC(=O)[C@@H](NC(=O)[C@H](C)NC(=O)[C@@H]1CSSC[C@H](NC(=O)[C@H](CCCCN)NC(=O)[C@@H](N)CCCCNC(=O)CC[C@H](NC(=O)CCCCCCCCCCCCCCCCC(=O)O)C(=O)O)C(=O)N[C@@H](CC(N)=O)C(=O)N[C@@H]([C@@H](C)O)C(=O)N[C@@H](C)C(=O)N[C@@H]([C@@H](C)O)C(=O)N1)[C@@H](C)O)C(=O)N[C@@H](CC(C)C)C(=O)N1CCC[C@H]1C(=O)N1CCC[C@H]1C(=O)N[C@H](C(=O)N[C@@H](CC(N)=O)C(=O)N[C@H](C(=O)NCC(=O)N[C@@H](CO)C(=O)N1CCC[C@H]1C(=O)N[C@H](C(=O)N[C@@H](Cc1ccc(O)cc1)C(N)=O)[C@@H](C)O)C(C)C)[C@@H](C)O) [Peptide 55 (SEQ ID NO: 55)]
7 | 70 pM | 7 | 493 pM | K([γGlu-C18 diacid])CNTATCATQRLANFLVHSS[Aib]NFGPILPPTNVGSNTY-NH2 (disulfide 2-7; N-terminus assumed; SMILES CC[C@H](C)[C@H](NC(=O)[C@@H]1CCCN1C(=O)CNC(=O)[C@H](Cc1ccccc1)NC(=O)[C@H](CC(N)=O)NC(=O)C(C)(C)NC(=O)[C@H](CO)NC(=O)[C@H](CO)NC(=O)[C@H](Cc1c[nH]cn1)NC(=O)[C@@H](NC(=O)[C@H](CC(C)C)NC(=O)[C@H](Cc1ccccc1)NC(=O)[C@H](CC(N)=O)NC(=O)[C@H](C)NC(=O)[C@H](CC(C)C)NC(=O)[C@H](CCCNC(=N)N)NC(=O)[C@H](CCC(N)=O)NC(=O)[C@@H](NC(=O)[C@H](C)NC(=O)[C@@H]1CSSC[C@H](NC(=O)[C@@H](N)CCCCNC(=O)CC[C@H](NC(=O)CCCCCCCCCCCCCCCCC(=O)O)C(=O)O)C(=O)N[C@@H](CC(N)=O)C(=O)N[C@@H]([C@@H](C)O)C(=O)N[C@@H](C)C(=O)N[C@@H]([C@@H](C)O)C(=O)N1)[C@@H](C)O)C(C)C)C(=O)N[C@@H](CC(C)C)C(=O)N1CCC[C@H]1C(=O)N1CCC[C@H]1C(=O)N[C@H](C(=O)N[C@@H](CC(N)=O)C(=O)N[C@H](C(=O)NCC(=O)N[C@@H](CO)C(=O)N[C@@H](CC(N)=O)C(=O)N[C@H](C(=O)N[C@@H](Cc1ccc(O)cc1)C(N)=O)[C@@H](C)O)C(C)C)[C@@H](C)O) [Peptide 56 (SEQ ID NO: 56)]
